This note sets out measurements from US20040023887A1 (published 2004).

Experiment [1] addresses T1, human insulin receptor (HIR), purified from transfected cells after solubilization with Triton X-100 (human, UniProt P06213-2 28-1370, limits assumed).
T1 construct: mature
In words: competition with 125I-insulin on solubilized HIR, PEG precipitation.

Experiment [2] addresses T2, Soluble IGF-1R (R&D Systems, Cat. # 391-GR/CF) (human, UniProt P08069 31-935).
T2 construct: extracellular domain; the precursor is cleaved into alpha and beta subunits; also called sIGF-1R
The experiment can be described thus: phage ELISA; IGF-1R ratio divided by IR ratio. In general terms: ELISA stands for enzyme-linked immunosorbent assay.

In experiment [3] the target is T3, Insulin receptor prepared according to Bass et al., 1996 (soluble IR-immunoglobulin chimera) (human, UniProt P06213 28-956).
T3 construct: extracellular domain; also called sIR-Fc; soluble IR (Bass construct); not shown: immunoglobulin constant domains replacing the transmembrane and intracellular domains
The experiment can be described thus: phage ELISA, receptor coated on plate; A405 over non-fat milk.

Experiment [4] has as its target T2, Soluble IGF-1R (R&D Systems, Cat. # …). The description is as above.
Experiment [5] deals with T4, soluble human insulin receptor-immunoglobulin heavy chain chimera (sIR-Fc) (human, UniProt P06213 28-956, limits assumed, Eu3+ (LANCE) labelled in the TR-FRET assays).
T4 construct: extracellular domain; also called HIR-immunoglobulin heavy chain chimera; not shown: immunoglobulin heavy chain constant domains
In words: TR-FRET competition, label b-RP9, Eu-sIR-Fc.

Experiment [6] deals with T4, soluble human insulin …. In words: TR-FRET competition, label b-S175, Eu-sIR-Fc. On the technique in general: Time-resolved FRET reads energy transfer from a long-lived donor to a nearby acceptor.
Experiment [7] has as its target T4, soluble human insulin …. The experiment can be described thus: FP competition, label FITC-RP9, sIR-Fc.
Experiment [8] concerns the target T5, human insulin receptor (HIR) (human, UniProt P06213-2 28-1370, limits assumed).
T5 construct: Also used for the WGA-purified recombinant human insulin receptor of the kinase assay
The experiment can be described thus: radio-receptor assay, label 125I-insulin, HIR.

Experiment [9] concerns the target T6, soluble HIR ectodomain (sIR) (human, UniProt P06213-2 28-944, limits assumed).
T6 construct: extracellular domain
In words: FP competition, label FITC-RP9, sIR.

B1: S415 (peptide)
peptide: ESFYDWFERQLGKX
chain: ESFYDWFERQLGKX
modifications: not fully specified; C-terminus joined to chemical linker 23 of Table 3; C-C linked dimer
notes: Synthetic truncated RP9 homodimer
Usually Kd stands for the constant that tells how readily two partners part at equilibrium. A high value points to lower affinity. The molecule B1 displayed a Kd in experiment [1] of 100 nM.

B2: B6L-3-G5-IR (peptide)
peptide: AETSAQVGWQRLWSVWPGDHWSTLDPFYHKLSELLRESGA
notes: library tags and phage coat protein not included
Turning to B2, the IGF-1R/IR ratio comparison in experiment [2] is 1.4 ratio. Further, in experiment [3], the “ratio over background (IR)” value was found to be 1.4 fold over background. In addition, the “ratio over background (IGF-1R)” value in experiment [4] amounted to 2 fold over background.

By IC50 is commonly meant the concentration that inhibits the measured activity by half. For GSLDESFYDWFERQLGKK (also called S371) [RP9], the IC50 was determined as 42 nM in experiment [5]; 6 nM in [6]; 10 nM in [7]; 44 nM in experiment [8]; 0.03 nM in [9].
